According to paper PMC10651130:

Target: RapR-LIMK1-Flag (LIMK1 T508D with iFKBP inserted in place of E360, flanked by GPG linkers) (UniProt P53667)
Test: co-IP

normalized binding to TrkB (500 nM rapamycin): 98.6%
Substance: TrkB-EGFP (tropomyosin receptor kinase B, EGFP-tagged) (from UniProt Q16620 32-822)
